Experimental data reported in patent US5891679A, “TNF-alpha muteins and a process for preparing them” (priority 1993, dated 1999).
Entries after “also recorded” stand apart in the source; their conditions may differ.

Legend:
[1] = tested on: L929 cells; settings: cited from earlier work
[2] = tested on: LPS-induced shock; settings: cited from earlier work
[3] = tested on: human interleukin 8 (IL8); assay: IL8 production by hMVECb cells; assay type: cell-based; settings: for IL8 concentration: 24 hours; for IL8 induction compared with wild type: human endothelial brain cells
[4] = tested on: L929 cells; assay: L929 cell killing (cytotoxic/cytolytic/tumoricidal) assay; assay type: cell-based, mouse
Description: L929 fibrosarcoma cells were obtained from the Rega Institute, Leuven, Belgium.
After 18 h of culture at 37° C., viability of the cell cultures was assessed by dye uptake analysis. […] The plates were read spectrophotometrically at 577 nm with a Titertek multiscan MCC340 ELISA Reader (Flow Laboratories, McLean, Va.).

[5] = tested on: Trypanosoma brucei brucei; assay: In vitro trypanocidal assay, T. brucei brucei; assay type: cell-based; settings: for mortality of trypanosomes: data not shown
Description: (§1) The Trypanosoma brucei brucei AnTat 1.1 (EATRO 1125) pleomorphic bloodstream form was kindly provided to us by Dr. N. Van Meirvenne of the Institute for Tropical Medecine, Antwerp, Belgium, and the Trypanosoma brucei rhodesiense Trp 11 pleomorphic bloodstream form was kindly provided to us by Dr. E. Bajyana Songa (Dept. Molecular Biology, Free University of Brussels, Belgium)
(§2) After 5 h of incubation, the number of live (=moving) parasites was assessed (counting chamber) and compared the control wells in which only incubation medium was added to the trypanosomes. […] All treatments were done in quadruplicate and all reported in vitro trypanolysis experiments were repeated at least 3 times.

[6] = tested on: Trypanosoma brucei rhodesiense; assay: In vitro trypanocidal assay, T. brucei rhodesiense; assay type: cell-based; settings: 5 h; for mortality of trypanosomes: data not shown
Description: as §1, §2

[7] = tested on: human interleukin-6 (IL6); assay: IL6 production by hMVECb cells; assay type: cell-based; settings: for IL6 concentration: 24 hours
Description: Subsequently, the IL6 concentration in the supernatant of the cells was assessed using a commercially available hIL6 ELISA kit (Medgenix, Belgium).

[8] = tested on: C57BL/6 mice; assay: TNF-α-induced lethal shock in mice; assay type: in vivo, mouse (C57BL/6)
Description: Female 10-weeks old C57BL/6 mice (Iffa Credo, France) were used in all in vivo TNF-induced lethal shock experiments.
Intravenous (i.v.) injection of 10-week-old C57BL/6 mice with 10 μg/mouse of mTNF-α causes death within 48 hours.
Ten weeks old C57BL/6 mice (5 to 6/group) were injected with different doses of wild type or mutant mouse TNF-α and the postinjection survival time was then assessed.

[9] = In vivo half life of wild type and tip-deleted TNF-α (serum concentration)
Description: An ELISA assay to measure the protein concentration of the wild type and tip-deleted or tip-mutated mouse TNF-α protein was developed. […] Subsequently, the plates were washed once with washing buffer (PBS, 0.05% Tween-20) and the remaining binding sites were blocked for at least one hour at 37° C. with 300 μl per well of PBS buffer supplemented with 1% BSA and 0.1% NaN3. Dilutions of sample or standard mTNF-α (0.01 to 10 ng/ml mTNF-α), made in 100 μl of PBS supplemented with 1% BSA, 1% rabbit serum, and 0.1% mertiolate are then added to each well and incubated for 2 hours at 37° C. […] Subsequently, the plates are washed four times with washing buffer wherafter 100 μl of straptavidin-horseradish peroxidase (Jackson Immunoresearch Labs), which has been diluted in sample diluent to a concentration of 100 ng/ml is added and incubated for 30 minutes at 37° C. […] The reaction is stopped by adding 100 μl per well of 2N H2SO4 wherafter the optical density is read at dual wavelength (450/595 nm).
Female 8 weeks old C57bL/6 mice (6 mice/group--Charles Rivers Deutshland) were injected intraperitoneally with 1 μg/mouse of either wild type mouse TNF-α or tip deleted TNF-α. Subsequently, the mice were bled 0.5, 5, 10, 15, 30, 60, 120, 180, or 240 minutes post-injection.

[10] = tested on: 3LL-R Lewis lung carcinoma cells; assay: Experimental metastasis inducing capacity on TNF resistant 3LL-R Lewis lung carcinoma cells; assay type: in vivo, mouse (C57bl/6); settings: for general condition of mice / mean lung weight: 17 days; for mean lung weight: 5 μg/mouse i.p. 5 hours prior to 3LL-R cells; for metastasis enhancing potential compared with wild type TNF: 3LL-R
Description: At this time, all mice were killed and the lung weight as well as the amount of cancer cell nodules in the lung was assessed.

[11] = mTNF-α 1000 pg/ml, +p55 (5 μg/ml)
[12] = mTNF-α 10000 pg/ml, +p55 (5 μg/ml)
[13] = Experiment 1, 0.5 minutes, 1 μg/mouse i.p.
[14] = Experiment 1, 5 minutes, 1 μg/mouse i.p.
[15] = Experiment 1, 10 minutes, 1 μg/mouse i.p.
[16] = Experiment 1, 15 minutes, 1 μg/mouse i.p.
[17] = Experiment 1, 30 minutes, 1 μg/mouse i.p.
[18] = Experiment 1, 60 minutes, 1 μg/mouse i.p.
[19] = Experiment 1, 120 minutes, 1 μg/mouse i.p.
[20] = Experiment 1, 180 minutes, 1 μg/mouse i.p.
[21] = Experiment 1, 240 minutes, 1 μg/mouse i.p.
[22] = Experiment 2, 0.5 minutes, 1 μg/mouse i.p.
[23] = Experiment 2, 15 minutes, 1 μg/mouse i.p.
[24] = Experiment 2, 30 minutes, 1 μg/mouse i.p.
[25] = Experiment 2, 60 minutes, 1 μg/mouse i.p.
[26] = Experiment 2, 120 minutes, 1 μg/mouse i.p.
[27] = Experiment 2, 180 minutes, 1 μg/mouse i.p.
[28] = Experiment 2, 240 minutes, 1 μg/mouse i.p.

## uromodulin: glycoprotein which binds TNF-α via its lectin-like domain
[1]
  effect on TNF-α cytotoxic/tumoricidal activity: does not block the tumoricidal activity of TNF-α
[2]
  effect on LPS-/TNF-/endotoxin-induced shock in vivo: able to potently inhibit the TNF-induced shock in vivo; also recorded: able to potently inhibit the LPS-induced shock in vivo

## mTNF-α: Purified recombinant mouse tumor necrosis factor-alpha, produced in E. coli
[3]; 333 pg/ml, experiment 1
  IL8 concentration: 1050 pg/mL
[3]; 333 pg/ml, experiment 2
  IL8 concentration: 1700 pg/mL
[3]; 1000 pg/ml, experiment 1
  IL8 concentration: 1680 pg/mL
[3]; 1000 pg/ml, experiment 2
  IL8 concentration: 1800 pg/mL
[3]; 1666 pg/ml, experiment 1
  IL8 concentration: 1200 pg/mL
[3]; 1666 pg/ml, experiment 2
  IL8 concentration: 1650 pg/mL
[4]; bioactivity on L929 cells, purified wild type
  specific activity: ~2×10^8 U/mg
[4]; mTNF-α 100 pg/ml, +p55 (5 μg/ml)
  Tumoricidal activity (% lysis): 0 ± 1%
[4]; mTNF-α 100 pg/ml, -p55
  Tumoricidal activity (% lysis): 40 ± 2%
[4]; [11]
  Tumoricidal activity (% lysis): 0 ± 1%
[4]; mTNF-α 1000 pg/ml, -p55
  Tumoricidal activity (% lysis): 92 ± 3%
[4]; [12]
  Tumoricidal activity (% lysis): 93 ± 3%
[4]; mTNF-α 10000 pg/ml, -p55
  Tumoricidal activity (% lysis): 98 ± 4%
[4]; purified recombinant, produced in E. coli, assay not stated
  specific activity: 10^8 units/mg
[5]; T. brucei brucei, 5 h
  concentration at which 50% of the animals (parasites) are killed: 5000 pg/mL
[5]; in vitro trypanocidal assay
  trypanocidal specific activity: 2×10^5 U/mg of protein
[5]; mTNF-α 100 pg/ml, +p55 (5 μg/ml soluble p55 hTNF-α receptor)
  Trypanocidal activity (% lysis): 25 ± 3%
[5]; mTNF-α 100 pg/ml, -p55
  Trypanocidal activity (% lysis): 30 ± 2%
[5]; [11]
  Trypanocidal activity (% lysis): 41 ± 4%
[5]; mTNF-α 1000 pg/ml, -p55
  Trypanocidal activity (% lysis): 45 ± 5%
[5]; [12]
  Trypanocidal activity (% lysis): 56 ± 3%
[5]; mTNF-α 10000 pg/ml, -p55
  Trypanocidal activity (% lysis): 60 ± 4%
[6]
  concentration at which 50% of the animals (parasites) are killed: 5000 pg/mL
[7]; 333 pg/ml, experiment 1
  IL6 concentration: 1520 pg/mL
[7]; 333 pg/ml, experiment 2
  IL6 concentration: 1900 pg/mL
[7]; 1000 pg/ml, experiment 1
  IL6 concentration: 1250 pg/mL
[7]; 1000 pg/ml, experiment 2
  IL6 concentration: 1400 pg/mL
[7]; 1666 pg/ml, experiment 1
  IL6 concentration: 1220 pg/mL
[7]; 1666 pg/ml, experiment 2
  IL6 concentration: 1300 pg/mL
[8]; C57BL/6 mice
  lethal dose: 10 μg/mouse
[8]; i.v. 10 μg/mouse
  time to death: ≤ 48 h
[9]; [13]
  concentration TNF-α: 1000 ng/mL
[9]; [14]
  concentration TNF-α: 880 ng/mL
[9]; [15]
  concentration TNF-α: 650 ng/mL
[9]; [16]
  concentration TNF-α: 500 ng/mL
[9]; [17]
  concentration TNF-α: 420 ng/mL
[9]; [18]
  concentration TNF-α: 320 ng/mL
[9]; [19]
  concentration TNF-α: 20 ng/mL
[9]; [20]
  concentration TNF-α: 10 ng/mL
[9]; [21]
  concentration TNF-α: 0 ng/mL
[9]; [22]
  concentration TNF-α: 1000 ng/mL
[9]; [23]
  concentration TNF-α: 550 ng/mL
[9]; [24]
  concentration TNF-α: 500 ng/mL
[9]; [25]
  concentration TNF-α: 480 ng/mL
[9]; [26]
  concentration TNF-α: 20 ng/mL
[9]; [27]
  concentration TNF-α: 0 ng/mL
[9]; [28]
  concentration TNF-α: 0 ng/mL
[10]
  general condition of mice: all suffered from severe respiration problems
  mean lung weight: 1088.2 ± 315.7

B1: del mTNF-α: tip-deleted mTNF-α; the TPEGAE coding sequence is deleted from the mTNF gene (protein)
chain: LRSSSQNSSDKPVAHVVANHQVEEQLEWLSQRANALLANGMDLKDNQLVVPADGLYLVYSQVLFKGQGCPDYVLLTHTVSRFAISYQEKVNLLSAVKSPCPKDLKPWYEPIYLGGVFQLEKGDQLSAEVNLPKYLDFAESGQVYFGVIAL
[3]; 333 pg/ml, experiment 1
  IL8 concentration: 1800 pg/mL
[3]; 333 pg/ml, experiment 2
  IL8 concentration: 2450 pg/mL
[3]; 1000 pg/ml, experiment 1
  IL8 concentration: 1300 pg/mL
[3]; 1000 pg/ml, experiment 2
  IL8 concentration: 2200 pg/mL
[3]; 1666 pg/ml, experiment 1
  IL8 concentration: 850 pg/mL
[3]; 1666 pg/ml, experiment 2
  IL8 concentration: 1250 pg/mL
[3]; listed as deletion mutant of mTNFα in the region extending from amino acids 105 to 110
  IL8 induction compared with wild type: induce consistently less human interleukin 8 (IL8)
[3]; listed as tip deletion mutant
  IL8 induction compared with wild type: about two times more powerful in inducing the inflammatory cytokine IL8
[7]; 333 pg/ml, experiment 1
  IL6 concentration: 760 pg/mL
[7]; 333 pg/ml, experiment 2
  IL6 concentration: 850 pg/mL
[7]; 1000 pg/ml, experiment 1
  IL6 concentration: 1180 pg/mL
[7]; 1000 pg/ml, experiment 2
  IL6 concentration: 1600 pg/mL
[7]; 1666 pg/ml, experiment 1
  IL6 concentration: 1240 pg/mL
[7]; 1666 pg/ml, experiment 2
  IL6 concentration: 1900 pg/mL
[7]; hMVECb
  IL6 induction compared with wild type: higher induction of human interleukin-6
[9]; 1 μg/mouse i.p.
  longer half life than wild type TNF-α: at least 2 fold
[9]; [13]
  concentration TNF-α: 1000 ng/mL
[9]; [14]
  concentration TNF-α: 990 ng/mL
[9]; [15]
  concentration TNF-α: 640 ng/mL
[9]; [16]
  concentration TNF-α: 550 ng/mL
[9]; [17]
  concentration TNF-α: 580 ng/mL
[9]; [18]
  concentration TNF-α: 450 ng/mL
[9]; [19]
  concentration TNF-α: 250 ng/mL
[9]; [20]
  concentration TNF-α: 100 ng/mL
[9]; [21]
  concentration TNF-α: 10 ng/mL
[9]; [22]
  concentration TNF-α: 1000 ng/mL
[9]; [23]
  concentration TNF-α: 600 ng/mL
[9]; [24]
  concentration TNF-α: 500 ng/mL
[9]; [25]
  concentration TNF-α: 500 ng/mL
[9]; [26]
  concentration TNF-α: 330 ng/mL
[9]; [27]
  concentration TNF-α: 240 ng/mL
[9]; [28]
  concentration TNF-α: 20 ng/mL
[9]; L929 cytotoxic assay and indirect ELISA
  in vivo half life compared with wild type: increased half life
[10]; listed as TNF tip deletion mutant
  metastasis enhancing potential compared with wild type TNF: considerably lower than that of wild type TNF
[10]; listed as mTNFα mutein carrying a deletion of the region extending from amino acids 105 to
  metastasis enhancing potential compared with wild type TNF: considerably lower in vivo metastasis enhancing potential
[10]
  general condition of mice: looked significantly better
  mean lung weight: 566 ± 318

B2: hTNF-β: Human recombinant TNF-β (lymphotoxin) (protein, UniProt P01374 35-205, looked up)
Lymphotoxin-alpha: LPGVGLTPSAAQTARQHPKMHLAHSTLKPAAHLIGDPSKQNSLLWRANTDRAFLQDGFSLSNNSLLVPTSGIYFVYSQVVFSGKAYSPKATSSPLYLAHEVQLFSSQYPFHVPLLSSQKMVYPGLQEPWLHSMYHGAAFQLTQGDQLSTHTDGIPHLVLSPSTVFFGAFAL
[5]; T. brucei brucei, 5 h
  mortality of trypanosomes: do not cause any mortality
[6]
  mortality of trypanosomes: do not cause any mortality

B3: mouse interleukin 1α: mouse interleukin 1α (protein, UniProt P01582 115-270, looked up)
Interleukin-1 alpha: SAPYTYQSDLRYKLMKLVRQKFVMNDSLNQTIYQDVDKHYLSTTWLNDLQQEVKFDMYAYSSGGDDSKYPVTLKISDSQLFVSAQGEDQPVLLKELPETPKLITGSETDLIFFWKSINSKNYFTSAAYPELFIATKEQSRVHLARGLPSMTDFQIS
[5]; T. brucei brucei, 5 h
  mortality of trypanosomes: do not cause any mortality
[6]
  mortality of trypanosomes: do not cause any mortality

B4: mouse interleukin 1β: mouse interleukin 1β (protein, UniProt P10749 118-269, looked up)
Interleukin-1 beta: VPIRQLHYRLRDEQQKSLVLSDPYELKALHLNGQNINQQVIFSMSFVQGEPSNDKIPVALGLKGKNLYLSCVMKDGTPTLQLESVDPKQYPKKKMEKRFVFNKIEVKSKVEFESAEFPNWYISTSQAEHKPVFLGNNSGQDIIDFTMESVSS
[5]; T. brucei brucei, 5 h
  mortality of trypanosomes: do not cause any mortality
[6]
  mortality of trypanosomes: do not cause any mortality
